Results as given in patent publication US20060242739A1, “Plant nucleotide-sugar pyrophosphatase/phosphodiesterase (nppase), method of obtaining same and use of same in the production of assay devices and in the production of transgenic plants” (Universidad Publica De Navarra, priority 2002, published 2006).

Legend:
Experiment in all cases: purified protein, by the assay type
[1] = substrate: Nc1ncnc2c1ncn2[C@@H]1O[C@H](COP(=O)(O)OP(=O)(O)O)[C@@H](O)[C@H]1O; conditions: pH 7.0
[2] = substrate: Nc1ncnc2c1ncn2[C@@H]1O[C@H](COP(=O)(O)OP(=O)(O)O[C@H]2O[C@H](CO)[C@@H](O)[C@H](O)[C@H]2O)[C@@H](O)[C@H]1O; conditions: pH 7.0
[3] = substrate: Nc1nc2c(ncn2[C@@H]2O[C@H](COP(=O)(O)OP(=O)(O)O[C@H]3O[C@H](CO)[C@@H](O)[C@H](O)[C@@H]3O)[C@@H](O)[C@H]2O)c(=O)[nH]1; conditions: pH 7.0
[4] = substrate: Nc1ncnc2c1ncn2[C@@H]1O[C@H](COP(=O)(O)OP(=O)(O)O[C@H]2O[C@H](CO)[C@@H](O)[C@H](O)[C@@H]2O)[C@@H](O)[C@H]1O; conditions: other: substrate of NPPase from barley leaves; pH 7.0
[5] = substrate: O=[N+]([O-])c1ccc(OP(=O)(O)O)cc1; conditions: other: substrate of NPPase from barley leaves; pH 7.0
[6] = substrate: Nc1ccn([C@@H]2O[C@H](COP(=O)(O)OP(=O)(O)O[C@H]3O[C@H](CO)[C@@H](O)[C@H](O)[C@H]3O)[C@@H](O)[C@H]2O)c(=O)n1; conditions: pH 7.0
[7] = substrate: Nc1ncnc2c1ncn2[C@@H]1O[C@H](COP(=O)(O)OP(=O)(O)OP(=O)(O)O)[C@@H](O)[C@H]1O; conditions: pH 7.0
[8] = substrate: NC(=O)c1ccc[n+]([C@@H]2O[C@H](COP(=O)(O)OP(=O)(O)OC[C@H]3O[C@@H](n4cnc5c(N)ncnc54)[C@H](O)[C@@H]3O)[C@@H](O)[C@H]2O)c1; conditions: other: substrate of NPPase from barley leaves; pH 7.0
[9] = substrate: O=[N+]([O-])c1ccc(OP(=O)(O)Oc2ccc([N+](=O)[O-])cc2)cc1; conditions: pH 7.0
[10] = substrate: Nc1nc2c(ncn2[C@@H]2O[C@H](COP(=O)(O)OP(=O)(O)O[C@H]3O[C@H](CO)[C@@H](O)[C@H](O)[C@H]3O)[C@@H](O)[C@H]2O)c(=O)[nH]1; conditions: other: substrate of NPPase from rice leaves; pH 7.0; 37.0 °C
[11] = substrate: Nc1ncnc2c1ncn2[C@@H]1O[C@H](COP(=O)(O)OS(=O)(=O)O)[C@@H](O)[C@H]1O; conditions: other: substrate of NPPase from rice leaves; pH 7.0; 37.0 °C
[12] = substrate: Cc1cn([C@H]2C[C@H](O)[C@@H](COP(=O)(O)OP(=O)(O)O[C@H]3O[C@H](CO)[C@@H](O)[C@H](O)[C@H]3O)O2)c(=O)[nH]c1=O; conditions: other: substrate of NPPase from rice leaves; pH 7.0; 37.0 °C
[13] = other: substrate of NPPase from barley leaves
[14] = other: substrate of NPPase from rice leaves, 37.0 °C

B1: NPPase from barley leaves (Hordeum vulgare) (protein)
chain: SDGSVVWAKPYTFRAPPTPGQNSLQRIIVFGDMGKAERDGSNEFANYQPGSLNTTDRLIEDLDNYDIVFHIGDMPYANGYLSQWDQFTAQVAPISAKKPYMVASGNHERDWPNTGGFFDVKDSGGECGVPAETMYYYPAENRANFWYKVDYGMFRFCVGDSEHDWREGTPQYKFIEECLSTVDRKHQPWLIFTAHRVLGYSSNSWYADQGSFEEPEGRESLQKLWQRYRVDIAYFGHVHNYERTCPLYQSQCVNADKTHYSGTMNGTIFVVAGGGGSHLSSYTTAIPKWSIFRDHDYGFTKLTAFNHSSLLFEYMKSSDGKVYDSFTIHRDYRDVLSCVHDSCFPTTLAS
Which results are given for B1?
Km [1, 13]: 3500 µM; Km [2, 13]: 500 µM; Km [3, 13]: 400 µM; Km [4]: 400 µM; Km [5]: 500 µM; Km [6, 13]: 2800 µM; Km [7, 13]: 3500 µM; Km [8]: 2500 µM; Km [9, 13]: 300 µM

B2: NPPase from rice leaves (Oryza sativa Japonica Group) (protein)
chain: SRPSSSLEGFQPLSKIAVHKATVDLHGSAFVSATPALLGDQGEDTEWVTVKYGWANPSADDWIAVFSPADFISGSCPNPSRYPDEPLLCTAPIKYQFANYSANYVYWGKGSIRFQLINQRYDFSFALFTGGLENPKLVAVSEAISFKNPKAPVYPRLAQGKSYDEMTVTWTSGYDISEAYPFVEWGMVVAGAAAPTRTAAGTLTFNRGSMCGEPARTVGWRDPGFIHTAFLRDLWPNKEYYYKIGHELSDGSIVWGKQYTFRAPPFPGQNSLQRIIVFGDMGKAERDGSNEFANYQPGSLNTTDRLVEDLDNYDIVFHIGDLPYANGYISQWDQFTAQVAPITAKKPYMIASGNHERDWPNTGGFFDVKDSGGECGVPAETMYYYPAENRANFWYKVDYGMFRFCIADSEHDWREGTDQYKFIEQCLSTVDRKHQPWLIFAAHRVLGYSSNWWYADQGSFEEPEGRESLQRLWQRHRVDVAFFGHVHNYERTCPMYQSQCVSGERRRYSGTMNGTIFVVAGGGGSHLSDYTSAIPKWSVFRDRDFGFVKLTAFNHSSLLFEYKKSSDGKVYDSFTVERDYRDVLSCVHDSCLPTTLAS
Which Km [1, 14] does the source give for B2 here?
Its Km is 4330 µM.

What about the Vmax [1, 14] of the same protein?
The Vmax was 385 µmol/min/mg.

And the kcat/Km [1, 14]?
Its kcat/Km is 100000 M⁻¹ s⁻¹.

And the Km [2, 14]?
Its Km is 600 µM.

And the Vmax [2, 14]?
The Vmax was 183 µmol/min/mg.

What about the kcat/Km [2, 14] of the same protein?
Its kcat/Km is 350000 M⁻¹ s⁻¹.

And the Km [3, 14]?
Its Km is 800 µM.

And the Vmax [3, 14]?
The Vmax was 129 µmol/min/mg.

And the kcat/Km [3, 14]?
Its kcat/Km is 190000 M⁻¹ s⁻¹.

And the Km [10]?
The Km was 930 µM.

What about the Vmax [10] of the same protein?
The Vmax was 119 µmol/min/mg.

And the kcat/Km [10]?
The kcat/Km was 148000 M⁻¹ s⁻¹.

And the Km [11]?
The Km was 3040 µM.

And the Km [6, 14]?
The Km was 920 µM.

What about the Vmax [6, 14] of the same protein?
Its Vmax is 107 µmol/min/mg.

What about the Km [7, 14] of the same protein?
Its Km is 2060 µM.

What about the Vmax [7, 14] of the same protein?
The Vmax was 356 µmol/min/mg.

And the kcat/Km [7, 14]?
The kcat/Km was 203000 M⁻¹ s⁻¹.

And the Km [9, 14]?
Its Km is 1300 µM.

What about the Vmax [9, 14] of the same protein?
Its Vmax is 191 µmol/min/mg.

And the kcat/Km [9, 14]?
Its kcat/Km is 171000 M⁻¹ s⁻¹.

What about the Km [12] of the same protein?
The Km was 600 µM.

What about the Vmax [12] of the same protein?
The Vmax was 106 µmol/min/mg.

And the kcat/Km [12]?
The kcat/Km was 206000 M⁻¹ s⁻¹.
